These are literature values, as cited in paper PMC3931982.

The target in this data set is RXR LBD (Homo sapiens) (UniProt P19793).

The Kd is the free concentration of one partner at which half of the binding sites on the other are occupied at equilibrium, for simple one-to-one binding. In the case of RXR LBD (from UniProt P19793), the Kd is 4 nM.
